The values that follow come from patent publication US20050191294A1 (University of Texas, published 2005).

Test [1] deals with T1, GRP78 of human prostate cancer cells (DU145 cell surface; human prostate cancer bone metastasis sections) (human, UniProt P11021 19-654).
T1 construct: whole, on cells; Endogenous protein; used for the intact-cell (BRASIL) assay and for tissue section overlays; also called GRP78 expressed on the membrane of the prostate cancer cells
Kind of test: BRASIL aqueous-organic phase separation, phage on intact DU145 cells. The method, then:
Cell-binding assays. Biopanning and Rapid Analysis of Selective Interactive Ligands (BRASIL) method was used to evaluate phage binding to intact cells. In brief, cultured human prostate cancer-derived DU 145 cells were detached with ethylenediaminetetraacetate (EDTA) and resuspended in Dulbecco's modified Eagle's medium (DMEM) containing 1% BSA at 4×10⁶ cells per ml. The cell suspension (50 μl) was incubated with 10⁹ of […] (SEQ ID NO:6)—phage, […] (SEQ ID NO:7)—phage, or insertless Fd-tet phage (negative control) at 4° C. in constant slow rotation. After 2 hours, the phage/cell mixture (aqueous phase) was gently transferred to the top of a non-miscible organic phase (200 μl solution in a 400 μl Eppendorf tube) consisting of dibutyl phtalate:cyclohexane (9:1 [v:v]; d=1.03 g ml⁻¹) and centrifuiged at 10,000 g for 10 minutes at 4° C. The tube was then snap frozen in liquid nitrogen, the bottom of the tube was sliced off, and the cell-phage pellet was isolated. Cell membrane bound phage were recovered by infection with the host bacteria.
GRP78-binding phage clones bind specifically to prostate cancer cells. Having determined the binding specificity of aptamers to GRP78 in vitro, the binding of filamentous phage clones displaying […] […] (SEQ ID NO:7) (FIG. 5B) 580 to intact DU145 human prostate cancer cells by using an aqueous-organic phase separation was evaluated. […]

Test [2] concerns the target T2, recombinant GRP78 (Stressgen).
T2 construct: Bought protein; also called Glucose-regulated protein-78; immobilized GRP78
Kind of test: phage binding to GRP78 immobilized on microtiter wells, 10^9 TU, bound TU counted. The method, then: In vitro phage binding assays. GRP78, HSP70, HSP90 (all from Stressgen, Victoria, Canada) and bovine serum albumin (BSA) were immobilized on microtiter wells of 96-well plates overnight at 4° C. Wells were washed twice with phosphate-buffered saline (PBS), blocked with PBS containing 3% BSA for 1 hour at room temperature (RT), and incubated with 10⁹ transducing units (TU) of […] (SEQ ID NO:6)-phage, […] (SEQ ID NO:7)-phage, or insertless control phage (Fd-tet) in 50 μl of PBS containing 1.5% BSA. After 2 hours at RT, wells were washed with PBS, and bound phage were recovered by infection with host bacteria (log-phase Escherichia coli K91 kan; OD₆₀₀≈2). Aliquots of the bacterial culture were plated onto Luria-Bertani broth (LB) agar plates supplemented with 40 μg/ml tetracycline and 100 μg/ml kanamycin. Plates were incubated overnight at 37° C., and phage TU were counted in triplicate plates. Increasing concentrations of synthetic peptides […] (SEQ ID NO:6), […] (SEQ ID NO:7)-, and an unrelated control peptide CARAC (SEQ ID NO:9) (Genemed Synthesis Inc., San Francisco, Calif.) were used to evaluate competitive inhibition of phage binding. All peptides were solubilized in a standard stock solution of 10% dimethylsulfoxide (DMSO) and diluted to working concentrations for the assays.
Peptide aptamers bind specifically to immobilized GRP78. […]

In test [3] the target is T3, IL-11Rα of human prostate cancer cells (LNCaP, MDA-PCa-2b) and human prostate cancer tissue sections (human, UniProt Q14626 23-422).
T3 construct: whole, on cells; Endogenous receptor; used both for cell assays and for tissue section overlays; also called IL-11 receptor alpha; interleukin-11 receptor alpha
T3 sequence (looked up): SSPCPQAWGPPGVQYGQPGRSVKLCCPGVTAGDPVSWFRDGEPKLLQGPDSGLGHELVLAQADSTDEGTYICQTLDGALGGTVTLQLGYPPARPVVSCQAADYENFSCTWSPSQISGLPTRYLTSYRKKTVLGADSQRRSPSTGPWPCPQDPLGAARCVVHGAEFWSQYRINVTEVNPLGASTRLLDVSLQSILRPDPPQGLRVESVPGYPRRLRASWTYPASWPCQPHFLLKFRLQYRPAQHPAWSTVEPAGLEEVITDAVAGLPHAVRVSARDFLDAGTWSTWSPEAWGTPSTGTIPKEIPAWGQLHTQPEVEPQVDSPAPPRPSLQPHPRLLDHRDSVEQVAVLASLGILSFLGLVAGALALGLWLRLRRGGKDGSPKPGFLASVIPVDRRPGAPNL
Kind of test: phage overlay on human prostate cancer tissue sections, compared with anti-IL-11Rα antibody staining.

T1 sequence (P11021 19-654): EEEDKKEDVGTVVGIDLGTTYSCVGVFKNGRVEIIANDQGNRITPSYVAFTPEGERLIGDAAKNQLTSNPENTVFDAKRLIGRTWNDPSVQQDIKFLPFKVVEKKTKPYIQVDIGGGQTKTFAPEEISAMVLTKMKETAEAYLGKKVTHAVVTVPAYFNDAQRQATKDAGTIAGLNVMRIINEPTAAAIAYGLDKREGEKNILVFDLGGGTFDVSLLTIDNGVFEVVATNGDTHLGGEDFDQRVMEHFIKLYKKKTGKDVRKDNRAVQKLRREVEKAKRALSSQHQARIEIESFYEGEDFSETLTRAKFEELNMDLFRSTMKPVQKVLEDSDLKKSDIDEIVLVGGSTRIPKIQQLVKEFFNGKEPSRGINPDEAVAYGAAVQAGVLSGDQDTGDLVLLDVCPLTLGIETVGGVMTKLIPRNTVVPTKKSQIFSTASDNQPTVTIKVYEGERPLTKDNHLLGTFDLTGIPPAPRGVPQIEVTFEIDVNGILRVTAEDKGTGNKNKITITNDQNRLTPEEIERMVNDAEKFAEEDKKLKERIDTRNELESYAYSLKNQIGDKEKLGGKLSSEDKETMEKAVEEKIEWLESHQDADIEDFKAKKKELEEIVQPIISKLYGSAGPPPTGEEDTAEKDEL
T2 sequence (P07823 19-654): as the sequence (P11021 19-654) above, with Y295F, A631S counted along it

B1: WIFPWIQL (SEQ ID NO:6)-phage (peptide)
peptide: WIFPWIQL
notes: whole phage particles stood in the assay; also called GRP78-targeting phage clone; not shown: pIII coat protein of fd-based phage (fUSE5 vector)
With B1, the “fold binding over control phage (fd-tet)” value in test [1] came to 30 fold. The “fold binding over negative control phage (fd-tet)” value in test [2] worked out at 870 fold.

B2: WDLAWMFRLPVG (SEQ ID NO:7)-phage (peptide)
peptide: WDLAWMFRLPVG
notes: as for B1
As for B2, the “fold binding over control phage (fd-tet)” value in test [1] amounted to 30 fold. The “fold binding over negative control phage (fd-tet)” value in test [2] was determined as 260 fold.

B3: CGRRAGGSC (SEQ ID NO:1)-displaying phage (peptide, not shown: large carriers)
peptide: CGRRAGGSC
notes: whole phage particles stood in the assay; also called IL-11-mimic phage; IL-11 mimic phage
Turning to B3, the binding result in test [3] is “binds”.
